The source of these data is publication PMC10235969 (Proceedings of the National Academy of Sciences of the …, 2023).

T1: Drosophila melanogaster RMC1 (Drosophila melanogaster, UniProt Q9VRX1 1-642)
T1 sequence: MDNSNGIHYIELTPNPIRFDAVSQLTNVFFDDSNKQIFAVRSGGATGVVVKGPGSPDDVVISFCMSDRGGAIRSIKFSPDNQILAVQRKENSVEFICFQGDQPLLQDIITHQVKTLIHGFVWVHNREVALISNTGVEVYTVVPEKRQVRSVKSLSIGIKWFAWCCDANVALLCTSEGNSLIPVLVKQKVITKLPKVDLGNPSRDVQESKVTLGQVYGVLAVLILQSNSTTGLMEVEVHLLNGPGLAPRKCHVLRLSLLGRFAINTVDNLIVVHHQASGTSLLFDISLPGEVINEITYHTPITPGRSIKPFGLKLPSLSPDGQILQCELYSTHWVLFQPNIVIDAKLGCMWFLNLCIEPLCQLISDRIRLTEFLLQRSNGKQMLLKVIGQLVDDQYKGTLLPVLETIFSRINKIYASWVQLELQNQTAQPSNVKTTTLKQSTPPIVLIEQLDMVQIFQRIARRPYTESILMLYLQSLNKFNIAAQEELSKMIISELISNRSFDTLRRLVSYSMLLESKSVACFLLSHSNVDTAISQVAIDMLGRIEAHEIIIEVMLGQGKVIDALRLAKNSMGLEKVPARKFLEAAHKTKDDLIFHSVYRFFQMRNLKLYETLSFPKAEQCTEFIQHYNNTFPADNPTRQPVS

B1: Drosophila melanogaster Mon1 (natural protein)
chain: MEVEQTSVRSDTNSTCEYLDAEGDPESPNLYQEADPDQEAEQQNHSIISELRDGLGTMRDNSALSPEPGQENKGLAASVESLALSTSTSAKTEDSIGGGLEEEYDYQHDSLWQGQKKHIFILSEAGKPIFSLHGNEDKLATLFGVIQALVSFVQMGQDAITSIHAGGIKFAFMQRSSLILVAASRSNMSVQQLQLQLGDVYNQILSILTYSHMTKIFERRKNFDLRRLLSGSERLFYNLLANDSSSAKVSNNIFTFLTNSIRVFPLPTTIRSQITSAIQSNCSKIKNLVFAVLIANNKLIALVRMKKYSIHPADLRLIFNLVECSESFKSSENWSPICLPKFDMNGYLHAHVSYLADDCQACLLLLSVDRDAFFTLAEAKAKITEKLRKSHCLEAINEELQQPFNAKLYQQVVGIPELRHFLYKPKSTAQLLCPMLRHPYKSLTELERLEAIYCDLLHRIHNSSRPLKLIYEMKEREVVLAWATGTYELYAIFEPVVDKATVIKYVDKLIKWIEKEYDVYFIRNHATF
B2: Drosophila melanogaster Ccz1 (natural protein)
chain: MAKLLQRVEITLRSFYIFNSTFGQVEGEEHKKVLFYHPNDIELNTKIKDVGLSEAIIRFTGTFTSEDDCQALHTQKTTQLFYQPEPGYWLVLVLNVPKEVRLKEGVEVADYRGAEISDRIYRAILRQCYQMFRFQNGCFSSCGSEEPNPDKRRELLCQKLLQFYDQHLTNLRDPAQCDIIDMLHSIQYLPLDKTLFLRAQNFGTLCETFPDIKESIMLYQEQVLCGGKLSPEDLHCVHSYVVQHVLKVEASSSTIAVSPSLKRSISECQVGGFVRSRQKVAGDEHDAVNEEDHPMKVYVTLDKEAKPYYLLIYRALHITLCLFLNADQVAPKQDLYDDLHAYMAPQLTSLARDISSELTKEAVGAAGQDNSSGNSETAPKYLFINEQSLQHHTNFQRHLPQGLPRNVLSIIADLANGSGKAEMESAPAEEVQVKTTNDYWIVKRRCNYRQYYVILCNSKATLLDVTQEARRIFEQELTDDVFFDK

In assay [1] the target is T1, Drosophila melanogaster RMC1. The assay is described as follows: cryo-EM structure.
In assay [2] the target is B1. Briefly: cryo-EM structure.

With B1, the binding result in assay [1] is reported as “binds”.
Regarding B2, the binding result in assay [2] and in assay [1] was “binds” each time.
